The record followed here is paper PMC12636746, “Structural Basis for TRF2-RAP1 Recruitment by EBNA1 at the EBV origin of replication” (Research Square, 2025).

B2: pre-assembled full length TRF2/Rap1 complex (complex)
chain 1: MAAGAGTAGPASGPGVVRDPAASQPRKRPGREGGEGARRSDTMAGGGGSSDGSGRAAGRRASRSSGRARRGRHEPGLGGPAERGAGEARLEEAVNRWVLKFYFHEALRAFRGSRYGDFRQIRDIMQALLVRPLGKEHTVSRLLRVMQCLSRIEEGENLDCSFDMEAELTPLESAINVLEMIKTEFTLTEAVVESSRKLVKEAAVIICIKNKEFEKASKILKKHMSKDPTTQKLRNDLLNIIREKNLAHPVIQNFSYETFQQKMLRFLESHLDDAEPYLLTMAKKALKSESAASSTGKEDKQPAPGPVEKPPREPARQLRNPPTTIGMMTLKAAFKTLSGAQDSEAAFAKLDQKDLVLPTQALPASPALKNKRPRKDENESSAPADGEGGSELQPKNKRMTISRLVLEEDSQSTEPSAGLNSSQEAASAPPSKPTVLNQPLPGEKNPKVPKGKWNSSNGVEEKETWVEEDELFQVQAAPDEDSTTNITKKQKWTVEESEWVKAGVQKYGEGNWAAISKNYPFVNRTAVMIKDRWRTMKRLGMN
chain 2: MAEAMDLGKDPNGPTHSSTLFVRDDGSSMSFYVRPSPAKRRLSTLILHGGGTVCRVQEPGAVLLAQPGEALAEASGDFISTQYILDCVERNERLELEAYRLGPASAADTGSEAKPGALAEGAAEPEPQRHAGRIAFTDADDVAILTYVKENARSPSSVTGNALWKAMEKSSLTQHSWQSLKDRYLKHLRGQEHKYLLGDAPVSPSSQKLKRKAEEDPEAADSGEPQNKRTPDLPEEEYVKEEIQENEEAVKKMLVEATREFEEVVVDESPPDFEIHITMCDDDPPTPEEDSETQPDEEEEEEEEKVSQPEVGAAIKIIRQLMEKFNLDLSTVTQAFLKNSGELEATSAFLASGQRADGYPIWSRQDDIDLQKDDEDTREALVKKFGAQNVARRIEFRKK
notes: source: E. coli, each protein purified; complex pre-assembled and purified by glycerol gradient; not shown: His6-SUMO, N-terminal, cleaved
B4: EBNA1 DNA binding domain (DBD) aa 401–607 (domain or fragment)
chain: GRRPFFHPVGEADYFEYHQEGGPDGEPDVPPGAIEQGPADDPGEGPSTGPRGQGDGGRRKKGGWFGKHRGQGGSNPKFENIAEGLRALLARSHVERTTDEGTWVAGVFVYGGSKTSLYNLRRGTALAIPQCRLTPLSRLPFGMAPGPGPQPGPLRESIVCYFMVFLQTHIFAEVLKDAIKDLVMTKPAPTCNIRVTVCSFDDGVDLP
notes: also called EBNA1 DBD; EBNA1(401–607); source: E. coli, autoinduction medium, purified (Ni-NTA, Superdex 75); not shown: His6-SUMO, N-terminal, cleaved
B5: TRF2 homodimerization domain (TRFH), residues 85–287 of TRF2 (domain or fragment, UniProt Q15554 85-287, looked up)
chain: AGEARLEEAVNRWVLKFYFHEALRAFRGSRYGDFRQIRDIMQALLVRPLGKEHTVSRLLRVMQCLSRIEEGENLDCSFDMEAELTPLESAINVLEMIKTEFTLTEAVVESSRKLVKEAAVIICIKNKEFEKASKILKKHMSKDPTTQKLRNDLLNIIREKNLAHPVIQNFSYETFQQKMLRFLESHLDDAEPYLLTMAKKALK
notes: also called TRFH domain; TRF2 dimerization domain; source: E. coli (all constructs), purified

Details in all cases: both partners purified
In experiment [1] the target is B2. Description: native gel or EMSA; pre-assembled TRF2-Rap1 complex (glycerol gradient) serially diluted onto pre-assembled ½DS-EBNA1 complex (10X stock 200 nM EBNA1, 50 nM ½DS DNA); binding buffer with 300 mM KCl; 1.4% agarose gel. In general terms: A gel shift assay detects complexes by their altered migration in electrophoresis.
In experiment [2] the target is T1, EBNA1Δ90–325 3x (E495A D499A E500A) (Epstein-Barr virus, UniProt P03211 1-641, Δ90–325 | E495A | D499A | E500A).
T1 construct: also called 3x mutant EBNA1; source: E. coli, autoinduction medium, purified (Ni-NTA, Superdex 75); not shown: His6-SUMO, N-terminal, cleaved
T1 sequence: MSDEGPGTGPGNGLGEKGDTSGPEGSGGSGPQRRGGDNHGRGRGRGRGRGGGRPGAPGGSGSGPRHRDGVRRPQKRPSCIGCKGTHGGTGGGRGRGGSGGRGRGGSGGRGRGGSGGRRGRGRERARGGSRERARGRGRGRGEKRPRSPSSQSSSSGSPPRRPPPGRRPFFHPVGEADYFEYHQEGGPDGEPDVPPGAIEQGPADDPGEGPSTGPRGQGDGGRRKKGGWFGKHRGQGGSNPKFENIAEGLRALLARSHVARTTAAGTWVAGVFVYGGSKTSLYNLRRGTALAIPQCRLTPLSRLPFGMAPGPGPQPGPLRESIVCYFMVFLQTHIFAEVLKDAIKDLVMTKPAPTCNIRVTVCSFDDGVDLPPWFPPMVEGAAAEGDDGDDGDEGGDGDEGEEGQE
The description is as above.

Experiment [3] has as its target B5. The experiment can be described thus: native gel or EMSA; TRFH domain added to the ½DS-EBNA1 complex; binding buffer lowered to 100 mM KCl, highest TRFH 10 μM (1000-fold excess); under standard conditions only a weak supershift.
The next experiment concerns the target T2, full-length TRF2 (UniProt Q15554 1-542).
T2 construct: also called TERF2; source: E. coli, autoinduction medium, purified (Ni-NTA, Superdex 75); not shown: His6-SUMO, N-terminal, cleaved
T2 sequence (looked up): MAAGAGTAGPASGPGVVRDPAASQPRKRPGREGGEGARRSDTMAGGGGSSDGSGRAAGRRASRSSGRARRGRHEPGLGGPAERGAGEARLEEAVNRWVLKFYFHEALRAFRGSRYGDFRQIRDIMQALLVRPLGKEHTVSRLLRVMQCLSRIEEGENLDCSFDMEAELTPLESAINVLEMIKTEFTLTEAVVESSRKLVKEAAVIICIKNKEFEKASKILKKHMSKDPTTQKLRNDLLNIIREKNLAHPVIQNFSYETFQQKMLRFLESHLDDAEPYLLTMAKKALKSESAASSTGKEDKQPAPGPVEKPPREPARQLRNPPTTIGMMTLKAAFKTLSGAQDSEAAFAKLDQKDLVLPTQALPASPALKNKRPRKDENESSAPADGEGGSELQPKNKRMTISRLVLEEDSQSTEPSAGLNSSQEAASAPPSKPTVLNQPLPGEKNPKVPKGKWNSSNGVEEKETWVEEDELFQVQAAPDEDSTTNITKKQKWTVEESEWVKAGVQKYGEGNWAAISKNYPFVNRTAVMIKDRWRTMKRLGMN
Description: native gel or EMSA; EBNA1 DBD pre-formed on the 60 bp ½DS DNA probe (5 nM, IRD700), TRF2 and then Rap1 added; 10 mM HEPES pH 7.5, 300 mM KCl, 5 mM MgCl2, 1 mM ZnCl2, 5 mM BME, 0.05% NP-40, 5% glycerol; 1.4% agarose gel.

The next experiment concerns the target T3, full-length Rap1 (human, UniProt Q9NYB0 1-399).
T3 construct: also called TERF2IP; source: E. coli, autoinduction medium, purified (Ni-NTA, Superdex 75); not shown: His6-SUMO, N-terminal, cleaved
T3 sequence (looked up): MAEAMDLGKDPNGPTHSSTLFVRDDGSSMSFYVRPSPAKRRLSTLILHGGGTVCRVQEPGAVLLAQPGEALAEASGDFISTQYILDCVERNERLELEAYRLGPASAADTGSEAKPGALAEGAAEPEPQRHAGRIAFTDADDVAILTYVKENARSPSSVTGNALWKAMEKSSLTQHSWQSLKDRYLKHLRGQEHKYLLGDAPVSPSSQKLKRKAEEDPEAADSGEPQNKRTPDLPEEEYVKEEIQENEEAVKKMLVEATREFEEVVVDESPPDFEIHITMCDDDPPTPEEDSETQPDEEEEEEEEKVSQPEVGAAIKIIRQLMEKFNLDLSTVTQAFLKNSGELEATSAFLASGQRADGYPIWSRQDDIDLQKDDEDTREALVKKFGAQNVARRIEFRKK
Described as above.

The target in experiment [4] is B4. Description: native gel or EMSA; TRFH domain added to the ½DS-EBNA1 complex; binding buffer lowered to 100 mM KCl, highest TRFH 10 μM (1000-fold excess); under standard conditions only a weak supershift.

B1: EBNA1ΔGA (Δ90–325), wild type (natural protein)
chain: MSDEGPGTGPGNGLGEKGDTSGPEGSGGSGPQRRGGDNHGRGRGRGRGRGGGRPGAPGGSGSGPRHRDGVRRPQKRPSCIGCKGTHGGTGGGRGRGGSGGRGRGGSGGRGRGGSGGRRGRGRERARGGSRERARGRGRGRGEKRPRSPSSQSSSSGSPPRRPPPGRRPFFHPVGEADYFEYHQEGGPDGEPDVPPGAIEQGPADDPGEGPSTGPRGQGDGGRRKKGGWFGKHRGQGGSNPKFENIAEGLRALLARSHVERTTDEGTWVAGVFVYGGSKTSLYNLRRGTALAIPQCRLTPLSRLPFGMAPGPGPQPGPLRESIVCYFMVFLQTHIFAEVLKDAIKDLVMTKPAPTCNIRVTVCSFDDGVDLPPWFPPMVEGAAAEGDDGDDGDEGGDGDEGEEGQE
notes: also called WT EBNA1; "full-length" EBNA1; source: E. coli, autoinduction medium, purified (Ni-NTA, Superdex 75); not shown: His6-SUMO, N-terminal, cleaved
As to B1, in experiment [1], the binding result is “binds”.

As to B2, the “fold weaker than with WT EBNA1” value in experiment [2] was approximately 2 fold.

B3: EBNA1 459–607 (domain or fragment)
chain: RKKGGWFGKHRGQGGSNPKFENIAEGLRALLARSHVERTTDEGTWVAGVFVYGGSKTSLYNLRRGTALAIPQCRLTPLSRLPFGMAPGPGPQPGPLRESIVCYFMVFLQTHIFAEVLKDAIKDLVMTKPAPTCNIRVTVCSFDDGVDLP
notes: also called shorter EBNA1 459–607; core structured DBD; source: E. coli (all constructs), purified
Take B3: the binding result in experiment [3] is recorded as “binds”.

For B4, the binding result with full-length TRF2 and in the experiment with full-length Rap1 was “binds” in each case.

In the case of B5, in experiment [4], the binding result is on record as “binds”.
